# Substitutions are numbered along the chain they refer to. Numbers in names are those of the source.
# B1: 2F8-HG F273A (antibody, part only; not given: 2F8 variable domains, not shown: a dimerising Fc or GST)
# heavy, part: ASTKGPSVFPLAPCSRSTSESTAALGCLVKDYFPEPVTVSWNSGALTSGVHTFPAVLQSSGLYSLSSVVTVPSSSLGTKTYTCNVDHKPSNTKVDKRVAPEFLGGPSVFLFPPKPKDTLMISRTPEVTCVVVDVSQEDPEVQFNWYVDGVEVHNAKTKPREEQFNSTYRVVSVLTVLHQDWLNGKEYKCKVSNKGLPSSIEKTISKAKGQPREPQVYTLPPSQEEMTKNQVSLTCLVKGFYPSDIAVEWESNGQPENNYKTTPPVLDSDGSFALYSRLTVDKSRWQEGNVFSCSVMHEALHNHYTQKSLSLSLGK
# B2: 2F8-HG F273L (antibody, part only; not given: 2F8 variable domains, not shown: a dimerising Fc or GST)
# heavy, part: B1 heavy, part with A273L
# What was measured:
# 2F8-HG F273A (human) = assay: non-covalent nano-electrospray mass spectrometry, 1 µM; self-association
# 2F8-HG F273L (human) = assay: as above
binder,measurement,setting,value
B1,percentage molecules present as monomers,2F8-HG F273A (human),> 80%
B2,percentage molecules present as monomers,2F8-HG F273L (human),> 80%

# From US20110045007A1
